A protein production outcome set (Wang et al. 2014)

test: label from the status in PepcDB records

Sequence | protein production
MSTKTGNYISIAIFAFFGGIARAWLNSSFGFYGTFWGNIIGCFLLAFFTYLFMEFKDVRQWLTVGLGTGFVGAFTTFSTFNLDVLKNIQANVPITALIYFLSSIIFGFCFAYLGMNAGKQVGNLLRKED | failed
MSTKTVHYPWFKKEDIDAFFALFQNNLANFVIIAVTMIGLGFPASLVFGKVIPGVAVAVIVGNLYYAYMANRLAQKESRSDVTALSYGISTPVMFVFLFGILAPALALTGDPELAWKIGLAAAFLSGFIELLVSFTGNWVRKHLPRPAMLGALAGVAVTFIAGEMLFQVFSIPVVGLVALAIILLGVVGKVTLPFNIPPSLCAVIIGTVLAFVLGYQSANTLQDSLANIGLYPILPSLGAFEGFGYLFGPLVGLLAILLPITIYNAIETMNNVDAMAAAGDSYDVRECQAVDGVGTMIGAVFGGLFPTTVYIATVGSKWMGAGRGYSILNALVFAITAVTGVIAALSELIPLAAVAPILVFVGMSMVVTAFDPNDRKYYPAVALAMLPYVANYVMTRFNNNAGEVVQGISEGIVPLGQGAMFTAIILGAIAVCIIDKQFIKAAVFSLIGAGLSFAGFMHAPELSFNAAPDYSLGYLCIAILFSYCAFRKTSKEAVASPSTLSSKRVAS | failed
MSTLQRRRVNRADSGDTSSIHSSANNTKGDKIANIAVDGDDDNGTNKKIAYDPEESKLRDNINIPTLTLMEEVLLMGLRDREGYLSFWNDSISYALRGCIIIELALRGKIRILDDSARKRFDLSERLIEVIDSSKTGEVLLDETLQLMKNDEPLSISNWIDLLSGETWNLLKINYQLKQVRERLAKGLVDKGVLRTEMKNFFLFDMATHPIADASCKEAIKRRVLSVLVSRNMELSYNEYFPETTSFKIIRTLALICGSYGANVLENVLTTLEYEKRDKAISRAEEIMAQFSQYPFDLEKETELGVSVNLNKEVKEEIENNPGHDLQLEVIAGVFEVFSRMDMLL | failed
MSTPDGDEKEQCFHRAIAKTSIYLDREPGNPELTVWLAINKASLAGAQGGFGALSLAKEAKSLLEGVIATSPQTLDGSAYTSLGSLYYKVPGWPIGFGDDDKAEEMLKKALEINPKGIDPNYFYGDFLAEEGRDKEAKVYLTRAMQASPRPLEHHHHHH | failed
MSTPETYKRSALNPETSLLLFLVPNPSNLTPISYTLTIPPPHEKTMLDKHGLLTQPISDVLRKLTTPMVFGMVAILLFNLVDTFFISLLGTDALAAVSFTFPVTFAVNCITMGIGVGLSASIGHLLGEGHSKHAAELTTHGIILAISLILIACALGFFTIDPLFTLLGAEDKLLPLIDEYMSIWYLTIPLLVIPMSSNSAIRATGDTKTPAKIMMLAGLINGILDPLLIFGYGPFPELGIQGAAIASAISWLGALIASFYVLTHKVKLLALPNKNTLISDWKQILTIGSPAALSNALNPISGAILMMMLASQGTVAVASYGAAQRVESLMLLVIMALTSSLSPLVAQNLGAKQPERVKEAIFLAIKFSVAFQLFLYILIVPLSIPISHLFSQDDAVQHGLWMYLICVPFSYGFQGIVMVLVSSLNAMKKPLYSFSWSFMRLFVFTLPTAWIGSQIYGMEGLFIGIAMGNVMGGISAFWYARTRIRFEDAALEERGDTKS | failed
MSTRLCEPSLRDDGAQRGTPASHGKWCDTGAFKLDETPSPVVANVSSTSDASFQFNRTPSPGKHQNHAADRSMWSLDDFVIIRKLDEGRFGKVYLAREKQSKCAVVLKCISKDMIRFHSLAHQLQREVELQEYAGRYHKNVLRLFAYFWDDVRIVLVLEYADSGTLQDLLDCYREKEQRSSLPDDKVRTILLQLLSALAFLHERDIIHRDVKPDNILFHGEKLLLADFSWAVRVNNSDPRYCRRHTVCGTLDYLAPEQVLKRGCTTKADLWAVGVVAYRMLCGFLPFEMLDARDVCSCIASGAIRYPSQLSPTARHFLQGLLRVDEALRFSCQEALNHPFMRGDCNCRISNRYIESKHRARAEEPVLQHQGSFDTT | failed
MSTVKNGTLEQDKLNWFKYLLFGIQHVLVMIAVPITSVFLVAKALSLSDQLTVNLMSATFLVCGLGTLLQSIGVYKFGSRLPFVMIPGGAPIVMFLGIAQEKDLATASGAVILTSLFYFIILPVFKRFLRFFPNIVIGTLLILVSINLIKIYGGLVIGKPDTADFASTLNIGLAFATIAASLFFARVLKGTLSQLSILLGLIFGTILSAFLGQMHFETITQPTIFSLPTIMPFGVPKFDLVATIPLLIFSLISMVEATGQTIAISDLVGKKETAFERVPPTIRGDALISLLGGWLGTSMIITSGENIGIVRATQVRSRYVTIIAGIILLIISVFTPLAHLANAIPVAVVSGTAIIVFSIIGTIGIDILRRVDLHEKGNMYVLAGALTMGLLPILVNGVYTNFPHALQPILNNGLAMGALTAILLNIVFSTHSQADAHQESK | failed
MSTVPISGRSQIMLVQDSEILSSSALQYKQFLSKVKISKNATSTAQVRRVGQKVAAATMLYLKQNGLGDMASQMKWEFNVVEDKAVNAFCMPGGKIVVYTGLLKLVGSDAELATVISHEVSHAVARHSNERISQEYLRQMGGNILGAAVSNKSAALQTVIGQAYGIGSQVLITLPYNRKQEYEADKIGLVFMAMAGYNPNAAITFWQKMAAQGNGRVEFLSTHPSDANRIAAIRQYMPEAMKHYKSKLEHHHHHH | not failed
MSVDPACPQSLPCFEASDCKESSPMPVICGPEENYPSLQMSSAEMPHTETVSPLPSSMDLLIQDSPDSSTSPKGKQPTSAENSVAKKEDKVPVKKQKTRTVFSSTQLCVLNDRFQRQKYLSLQQMQELSNILNLSYKQVKTWFQNQRMKSKRWQKNNWPKNSNGVTQKASAPTYPSLYSSYHQGCLVNPTGNLPMWSNQTWNNSTWSNQTQNIQSWSNHSWNTQTWCTQSWNNQAWNSPFYNCGEESLQSCMHFQPNSPASDLEAALEAAGEGLNVIQQTTRYFSTPQTMDLFLNYSMNMQPEDV | not failed
MSVDQMAHYQRKLAYEMDSWDLYIALNEGQAITIVDGRSEAAFADEHIPGALNLPHKEICFNSTQMLDKSKLYVCYCDGIGCNASTKTALNLLTLGFDVRELIGGLDWWKRDGYATDGKKAQLGTKINCGC | failed
MSVDTTVKNRVYPAIPPTQLPEFETIFGHPKPLWMLFMAEFWERFAFYGIRWALTLYIVTQFFDGNAIGEGNANSTYGAYLALVYASAIFGGFIADRIIGYQRSIIIGAVIMACGLFLITVPSRTMFEIGLATIVIGNGLFKPNISSLVGQLYAEGDTRRDRGFTIFYMGINAGSLISPLITSWLAGQVFGTPMQQNYKVVFIASGIGMFLSLLWFWIGKRQLKGIGLSPKGGESIFRTFLIVFGALLAIPLAYLLLAKLNATTLAWILGLLFAVLATLLIVTALRNGKIQRDRVIAMLIIFVFNVMFWMFFEQAGSSFNFLAKNIVDRQILSNWEFPVGWFQSVNPLAIILLAPIIAVIWSLLDKYRIEPSIPRKFSFGLMFNGFGFLILMYALSNLLNASNMIPFWSLIAVYVIQTVGELCLSPIGLSMVTKLAPVRLVGFAMGGWFLSTAIGNNLSGVFASFVSGEEGMTVSSALRGYTFGFWSLIGSGILLFLISPLINRLMHGVK | failed
MSVFAGLVEQLADVLQPLFHASAAAAAIVLFTALVRLLVHPLSRASARGQRARARLQPQVAELRKKHGKNPEKLQKALLELHAEEKVSPLSGCLPGLFQLPAFFLLYHLFSNTTIGGEGNELLTHTLFTAPLGDRWADALGDGGPFGTQGLVYLGLFAIVAAVATFNYRRTKRTMAANPLPVGDGEQQVPGLGAINRFMPLMSFFTLFTVAFVPLAAALYVVTSTTWSAVERAALYPVPERSS | failed
MSVKGFFFILVFFLVAIMGFLIYISETVVVKYLYIAEALMLLLMLYLILFYRKIVKPMNTIGSGMELLREQDFSSRLSHVGQQEADRVVNVFNRMMEQLKNERLRLREQNHFLDLMINASPMGVIIMTLDEEVSQLNPMAMKMMGVRPEEAEGRKLSEIDSPLALELAAIPNGETSTVRLNDSSIYKCTHSSFVDRGFQHPFYLMEGLTDEVMKAEKKAYEKVIRMIAHEVNNTTAGITSTLDTVEQALSESEGMEDICDVMRVCTERCFSMSHFITRFADVVKIPEPRFTPTNLNDLAFTCKRFMEGMCNDRNIRLQLICDESLDDVKLDASLFEQVLVNIIKNAAESIGQDGQIIIRTSLPTAIEVVDNGPGISKETEAKLFSPFFSTKPNGQGIGLIFIREVLSRHGCTFSLRTYADGLTRFRILFP | failed
MSVKTWRKIAIDIIRDFDHNIMPLFGNPKASETISISPSGDETKVVDKVAENIIISKFKDLGVNVVSEEIGRIDQGSDYTVVVDPLDGSYNFINGIPFFAVSVAIFHEKDPIYAFIYEPIVERLYEGIPGKGSYLNGEKIKVRELAEKPSISFYTKGKGTKIIDKVKRTRTLGAIALELAYLARGALDAVVDIRNYLRPTDIAAGVVIAREAGAIVKDLDGKDVEITFSATEKVNIIAANNEELLETILRSIEK | not failed
MSVPAIAPRRKRLADGLSVTQKVFVRSRNGGATKIVREHYLRSDIPCLSRSCTKCPQIVVPDAQNELPKFILSDSPLELSAPIGKHYVVLDTNVVLQAIDLLENPNCFFDVIVPQIVLDEVRNKSYPVYTRLRTLCRDSDDHKRFIVFHNEFSEHTFVERLPNETINDRNDRAIRKTCQWYSEHLKPYDINVVLVTNDRLNREAATKEVESNIITKSLVQYIELLPNADDIRDSIPQMDSFDKDLERDTFSDFTFPEYYSTARVMGGLKNGVLYQGNIQISEYNFLEGSVSLPRFSKPVLIVGQKNLNRAFNGDQVIVELLPQSEWKAPSSIVLDSEHFDVNDNPDIEAGDDDDNNESSSNTTVISDKQRRLLAKDAMIAQRSKKIQPTAKVVYIQRRSWRQYVGQLAPSSVDPQSSSTQNVFVILMDKCLPKVRIRTRRAAELLDKRIVISIDSWPTTHKYPLGHFVRDLGTIESAQAETEALLLEHDVEYRPFSKKVLECLPAEGHDWKAPTKLDDPEAVSKDPLLTKRKDLRDKLICSIDPPGCVDIDDALHAKKLPNGNWEVGVHIADVTHFVKPGTALDAEGAARGTSVYLVDKRIDMLPMLLGTDLCSLKPYVDRFAFSVIWELDDSANIVNVNFMKSVIRSREAFSYEQAQLRIDDKTQNDELTMGMRALLKLSVKLKQKRLEAGALNLASPEVKVHMDSETSDPNEVEIKKLLATNSLVEEFMLLANISVARKIYDAFPQTAMLRRHAAPPSTNFEILNEMLNTRKNMSISLESSKALADSLDRCVDPEDPYFNTLVRIMSTRCMMAAQYFYSGAYSYPDFRHYGLAVDIYTHFTSPIRRYCDVVAHRQLAGAIGYEPLSLTHRDKNKMDMICRNINRKHRNAQFAGRASIEYYVGQVMRNNESTETGYVIKVFNNGIVVLVPKFGVEGLIRLDNLTEDPNSAAFDEVEYKLTFVPTNSDKPRDVYVFDKVEVQVRSVMDPITSKRKAELLLK | failed
MSVPGPSSPDGALTRPPYCLEAGEPTPGLSDTSPDEGLIEDLTIEDKAVEQLAEGLLSHYLPDLQRSKQALQELTQNQVVLLDTLEQEISKFKECHSMLDINALFAEAKHYHAKLVNIRKEMLMLHEKTSKLKKRALKLQQKRQKEELEREQQREKEFEREKQLTARPAKRM | failed
MSVPQRPHQFVLTLSCPSAAGQVAAVVGLLDRHRCYVDELTVFDDDLSARFFVRCVFHATDDADALRVDALRREFEPIAERFRMQWAIHDVAARPKVLIMVSKLEHCLADLLFRWKMGELKMDIVGIVSNHPDFAPLAAQHGLPFRHFPITADTKAQQEAQWLDVFETSGAELVILARYMQVLSPEASARLANRAINIHHSFLPGFKGAKPYHQAHARGVKLIGATAHFVTDDLDEGPIIEQVVERVDHSYRPEQLLAVGRDVECITLARAVKAFIERRVFLNGDRTVVFQ | not failed
MSVRDLIPWSRGGGPAPSIYRGDDMDPFLSLHRNVNRLFDEVFRGFDTPSVLGRMAPLNGTWPGVEFSETDEEIRLTAEIPGLDENDVEVMLDDGVLTLRGEKKAETEDKDRQFSERYYGRFERRFGLGREVEDDKVAATFKNGVLTVTLPKTKRAQANAKRIAINGNK | failed
MSVRVYIGNLPRDIEQAELDAVFAEAGEVSAKLVTDRKTGKSRGFAFATVASDELADALIERFNGTEVQGSTLKLEKAQPRERDNEGGNNRRRSGGGGNDNRRSGKSAPRVISSGPEGFQPDPRWAQELEKLKELLAAQTVS | failed
